Measured values published in publication PMC7617965, “Interaction with AK2A links AIFM1 to cellular energy metabolism” (Molecular cell, 2025).
Values belong to the molecule of their own block, whether it stands above or below them. No end group written: not given here.

Experiments:
[1] = molecular target: endogenous AIFM1 (human (endogenous in HEK293)) (UniProt O95831); experiment: SEC; native lysates of HEK293 cells (WT, AIFM1 KO, AIFM1 KO with AIFM1-HA, AK2 KO with AK2A or AK2B; cycloheximide 4 h in one panel) on HiLoad 16/600 Superdex 200; fractions analysed by immunoblot, in part after a thiol shift with mmPEG24
MIA40 (Homo sapiens) = MIA40 (Homo sapiens) (UniProt Q8N4Q1); settings: cited from earlier work
AIFM1(103-613) [2] = molecular target: T1, AIFM1(103-613) (human, UniProt O95831 103-613); experiment: SEC; AIFM1 incubated with AK2A, MIA40 or the interaction site peptides with NADH; unbound NADH removed by gel filtration; samples at 0 and 7 h analysed by gel filtration, absorbance at 280 nm; settings: both partners purified
T1 construct: Flavoprotein with FAD; forms a dimer in the presence of NADH, which was added in most assays; also called soluble AIFM1 lacking the transmembrane domain; source: E. coli Rosetta2 (DE3), purified (Ni Sepharose)

AIFM1(103-613) [3] = molecular target: T1, AIFM1(103-613); experiment: cell-based or functional assay
AIFM1(103-613) [4] = molecular target: T1, AIFM1(103-613); experiment: SEC; purified proteins, AIFM1 to AK2 or MIA40 1:2 to 1:4, 100 mM NaCl, 20 mM Tris/Cl pH 7.4, with 0.1 mM NADH, 20 min, 4°C, Superdex 200; settings: both partners purified

Molecule: AIFM1 (from UniProt O95831)
- Kd (MIA40 (Homo sapiens)): 180 nM

B2: AK2A WT peptide (peptide)
peptide: ATSKDLVMFI-NH2
notes: C-terminus of AK2 isoform A; serine stands where AK2A bears C232; also called AK2A peptide; source: synthetic peptide
- half-life (t1/2) of the complex after removal of excess NADH (AIFM1(103-613) [2]): > 7 h
- apparent kcat of the NADH:DCIP oxidoreductase activity of AIFM1 with the peptide (3.3 μM); AIFM1 alone 0.37 s^−1 (DMSO) (AIFM1(103-613) [3]): 0.71 s⁻¹

B3: MIA40 C4S,C53S,C55S (natural protein, UniProt Q8N4Q1 1-142, looked up)
chain: MSYSRQEGKDRIIFVTKEDHETPSSAELVADDPNDPYEEHGLILPNGNINWNSPSLGGMASGPCGEQFKSAFSCFHYSTEEIKGSDCVDQFRAMQECMQKYPDLYPQEDEDEEEEREKKPAEQAEETAPIEATATKEEEGSS
notes: MIA40 (CHCHD4) with C4S, C53S and C55S; Only aa 2-20 are seen in the cryo-EM map; also called MIA40 SPS; purified MIA40; source: E. coli Rosetta2 (DE3), purified (Ni Sepharose)
- stoichiometry N (AIFM1(103-613) [4]): 2 per AIFM1 dimer
- half-life (t1/2) of the complex after removal of excess NADH (AIFM1(103-613) [2]): > 7 h

The next lines start with the values.

- percent of AK2 in the fractions of the complex [1]: 5%
Molecule: adenylate kinase 2 (AK2), endogenous (from UniProt P54819 1-239) (enzyme)

- half-life (t1/2) of the complex after removal of excess NADH (AIFM1(103-613) [2]): > 7 h
- apparent kcat of the NADH:DCIP oxidoreductase activity of AIFM1 with the peptide (3.3 μM); AIFM1 alone 0.50 s^−1 (H2O) (AIFM1(103-613) [3]): 0.89 s⁻¹
B1: MIA40 WT peptide (peptide)
peptide: SYSRQEGKDRIIFVTKEDHETPSSAELVA-NH2
notes: N-terminal region of MIA40 (CHCHD4); serine stands at position 4 where MIA40 has C4; also called MIA40 peptide; source: synthetic peptide
